Source: patent US7423021B2, “Peptidic thrombin inhibitors” (NSCI Novel Science International GmbH, priority 2003, dated 2008)
Numbered stars: 1 amine (or outer) side, 2 acyl side, 3 side chain; on linkers, the order of the positions; unused ones are H or OH. Square brackets hold non-standard residues; d marks the D form. Peptide text beside a SMILES is read from it. * marks the point of attachment. Ppd = 4-phenylpiperidine-4-carboxylic acid, O=C(C1(c2ccccc2)CCN([*:1])CC1)[*:2]; Phe(4-NO2) = N[C@@H](Cc1ccc([N+](=O)[O-])cc1)C(=O)O; Tpi = O=C(O)[C@@H]1Cc2c([nH]c3ccccc23)CN1; X1 = N=C(N)NC[C@H]1CC[C@H](C(=O)*)CC1; hArg = N=C(N)NCCCC[C@H](N)C(=O)O; Tic = O=C(O)[C@@H]1Cc2ccccc2CN1; Cha = N[C@@H](CC1CCCCC1)C(=O)O; Cit = NC(=O)NCCC[C@H](N)C(=O)O; dCha = N[C@H](CC1CCCCC1)C(=O)O; Phg = N[C@H](C(=O)O)c1ccccc1; Dcp = dichlorophenylalanine; Nle = CCCC[C@H](N)C(=O)O; Aze = O=C(O)[C@@H]1CCN1; Tea = thienylalanine

Target: thrombin (Homo sapiens, UniProt P00734)
Test: in-vitro inhibition of the amidase activity of thrombin (fluorogenic substrate Tos-Gly-Pro-Arg-AMC)
Format: biochemical
Design: 10 μl of human thrombin solution
Procedure: The values of the inhibiting constants Ki were obtained from assays in which thrombin hydrolyzes the fluorogenic substrate Tos-Gly-Pro-Arg-(7-amino-4-methylcumarin). The assays were carried out in […] of assay buffer (0.05 M tris, 0.1 M NaCl, 0.1% PEG 8000, pH 7.6) with 10 μl of human thrombin solution (10^−5 U/μl in the assay buffer) and 140 μl of a solution of the fluorogenic substrate in an assay buffer at a concentration of 30 μM. Solutions of the test compound (10 μl) were added at various concentrations. The rates of the hydrolysis of the substrate were measured by monitoring the reactions at […] of the release of 7-amino-4-methylcumarin using AMC. The reaction reached an equilibrium state within three minutes, after thrombin, the substrate, and an inhibitor were mixed. The kinetic data of the competing inhibition (Km, Vmax, and Ki) were analyzed by means of the representation according to Hanes (A/V against A at various values of A, where A is the substrate concentration and V the reaction rate).

[1] = peptide concentration of 250 nM

Row | Compound | inhibition of the amidase activity of the thrombin (peptide concentration of 1 μM) | inhibition of the amidase activity of the thrombin [1] | also measured
1 | N-acetyl-L-Ala-L-Cha-D-Pro-D-Tyr-L-Arg amide (Ac-A[Cha][dP][dY]R-NH2; SMILES CC(=O)N[C@@H](C)C(=O)N[C@@H](CC1CCCCC1)C(=O)N1CCC[C@@H]1C(=O)N[C@H](Cc1ccc(O)cc1)C(=O)N[C@@H](CCCNC(=N)N)C(N)=O) [Example 4] | 44% |  | 
2 | N-acetyl-L-Trp-L-Cha-D-Pro-D-Tyr-L-Arg amide (Ac-W[Cha][dP][dY]R-NH2; SMILES CC(=O)N[C@@H](Cc1c[nH]c2ccccc12)C(=O)N[C@@H](CC1CCCCC1)C(=O)N1CCC[C@@H]1C(=O)N[C@H](Cc1ccc(O)cc1)C(=O)N[C@@H](CCCNC(=N)N)C(N)=O) [Example 9] | 63% |  | 
3 | N-acetyl-L-Trp-D-Cha-L-Aze-D-Tyr-L-Har amide (Ac-W[dCha][Aze][dY][hArg]-NH2; SMILES CC(=O)N[C@@H](Cc1c[nH]c2ccccc12)C(=O)N[C@H](CC1CCCCC1)C(=O)N1CC[C@H]1C(=O)N[C@H](Cc1ccc(O)cc1)C(=O)N[C@@H](CCCCNC(=N)N)C(N)=O) [Example 18] |  | 76% | 
4 | N-acetyl-D-Lys-L-Nle-L-Cha-D-Pro-D-Tyr-L-Arg amide (Ac-[dK][Nle][Cha][dP][dY]R-NH2; SMILES CCCC[C@H](NC(=O)[C@@H](CCCCN)NC(C)=O)C(=O)N[C@@H](CC1CCCCC1)C(=O)N1CCC[C@@H]1C(=O)N[C@H](Cc1ccc(O)cc1)C(=O)N[C@@H](CCCNC(=N)N)C(N)=O) [Example 12] | 48% |  | 
5 | N-acetyl-L-Nhm-D-Cha-L-Aze-D-Tyr-L-Har amide (Ac-[Tpi][dCha][Aze][dY][hArg]-NH2; SMILES CC(=O)N1Cc2[nH]c3ccccc3c2C[C@H]1C(=O)N[C@H](CC1CCCCC1)C(=O)N1CC[C@H]1C(=O)N[C@H](Cc1ccc(O)cc1)C(=O)N[C@@H](CCCCNC(=N)N)C(N)=O) [Example 22] |  | 80% | 
6 | N=C(N)NCCCC[C@H](NC(=O)[C@@H](Cc1ccc(O)cc1)NC(=O)[C@@H]1CCN1C(=O)[C@@H](CC1CCCCC1)NC(=O)[C@H]1CC[C@H](CNC(=N)N)CC1)C(N)=O [Example 31, Trans-4-(guanidinomethyl)cyclohexanecarboxylic acid-D-Cha-L-Aze-D-Try-L-Har amide] (X1-[dCha][Aze][dY][hArg]-NH2) |  |  | Ki: 3 nM
7 | N-acetyl-L-Tea-D-Cha-L-Aze-D-Tyr-L-Har amide (Ac-[Tea][dCha][Aze][dY][hArg]-NH2) [Example 25] |  | 74% | 
8 | N-acetyl-L-Ser-L-Ala-L-Cha-D-Pro-D-Tyr-L-Arg amide (Ac-SA[Cha][dP][dY]R-NH2; SMILES CC(=O)N[C@@H](CO)C(=O)N[C@@H](C)C(=O)N[C@@H](CC1CCCCC1)C(=O)N1CCC[C@@H]1C(=O)N[C@H](Cc1ccc(O)cc1)C(=O)N[C@@H](CCCNC(=N)N)C(N)=O) [Example 10] | 47% |  | 
9 | N-acetyl-L-Arg-L-Cha-D-Pro-D-Tyr-L-Arg amide (Ac-R[Cha][dP][dY]R-NH2; SMILES CC(=O)N[C@@H](CCCNC(=N)N)C(=O)N[C@@H](CC1CCCCC1)C(=O)N1CCC[C@@H]1C(=O)N[C@H](Cc1ccc(O)cc1)C(=O)N[C@@H](CCCNC(=N)N)C(N)=O) [Example 14] | 47% |  | 
10 | N-acetyl-D-Gln-D-His-L-Cha-D-Pro-D-Tyr-L-Arg amide (Ac-[dQ][dH][Cha][dP][dY]R-NH2; SMILES CC(=O)N[C@H](CCC(N)=O)C(=O)N[C@H](Cc1c[nH]cn1)C(=O)N[C@@H](CC1CCCCC1)C(=O)N1CCC[C@@H]1C(=O)N[C@H](Cc1ccc(O)cc1)C(=O)N[C@@H](CCCNC(=N)N)C(N)=O) [Example 1] | 59% |  | 
11 | N-acetyl-L-Ala-D-Cha-L-Aze-D-Tyr-L-Arg amide (Ac-A[dCha][Aze][dY]R-NH2; SMILES CC(=O)N[C@@H](C)C(=O)N[C@H](CC1CCCCC1)C(=O)N1CC[C@H]1C(=O)N[C@H](Cc1ccc(O)cc1)C(=O)N[C@@H](CCCNC(=N)N)C(N)=O) [Example 16] | 63% |  | 
12 | N-acetyl-D-Tyr-L-Cha-D-Pro-D-Tyr-L-Arg amide (Ac-[dY][Cha][dP][dY]R-NH2; SMILES CC(=O)N[C@H](Cc1ccc(O)cc1)C(=O)N[C@@H](CC1CCCCC1)C(=O)N1CCC[C@@H]1C(=O)N[C@H](Cc1ccc(O)cc1)C(=O)N[C@@H](CCCNC(=N)N)C(N)=O) [Example 13] | 47% |  | 
13 | N-acetyl-L-Pnp-D-Cha-L-Aze-D-Tyr-L-Har amide (Ac-[Phe(4-NO2)][dCha][Aze][dY][hArg]-NH2; SMILES CC(=O)N[C@@H](Cc1ccc([N+](=O)[O-])cc1)C(=O)N[C@H](CC1CCCCC1)C(=O)N1CC[C@H]1C(=O)N[C@H](Cc1ccc(O)cc1)C(=O)N[C@@H](CCCCNC(=N)N)C(N)=O) [Example 29] |  | 72% | 
14 | N-acetyl-L-Ser-L-Ser-L-Cha-D-Pro-D-Tyr-L-Arg amide (Ac-SS[Cha][dP][dY]R-NH2; SMILES CC(=O)N[C@@H](CO)C(=O)N[C@@H](CO)C(=O)N[C@@H](CC1CCCCC1)C(=O)N1CCC[C@@H]1C(=O)N[C@H](Cc1ccc(O)cc1)C(=O)N[C@@H](CCCNC(=N)N)C(N)=O) [Example 7] | 40% |  | 
15 | N-acetyl-L-Ser-L-Arg-L-Cha-D-Pro-D-Tyr-L-Arg amide (Ac-SR[Cha][dP][dY]R-NH2; SMILES CC(=O)N[C@@H](CO)C(=O)N[C@@H](CCCNC(=N)N)C(=O)N[C@@H](CC1CCCCC1)C(=O)N1CCC[C@@H]1C(=O)N[C@H](Cc1ccc(O)cc1)C(=O)N[C@@H](CCCNC(=N)N)C(N)=O) [Example 11] | 51% |  | 
16 | N-acetyl-L-Ala-D-Cha-L-Aze-D-Tyr-L-Har amide (Ac-A[dCha][Aze][dY][hArg]-NH2; SMILES CC(=O)N[C@@H](C)C(=O)N[C@H](CC1CCCCC1)C(=O)N1CC[C@H]1C(=O)N[C@H](Cc1ccc(O)cc1)C(=O)N[C@@H](CCCCNC(=N)N)C(N)=O) [Example 19] |  | 77% | 
17 | N-acetyl-L-Tyr-L-Cit-L-Cha-D-Pro-D-Tyr-L-Arg amide (Ac-Y[Cit][Cha][dP][dY]R-NH2; SMILES CC(=O)N[C@@H](Cc1ccc(O)cc1)C(=O)N[C@@H](CCCNC(N)=O)C(=O)N[C@@H](CC1CCCCC1)C(=O)N1CCC[C@@H]1C(=O)N[C@H](Cc1ccc(O)cc1)C(=O)N[C@@H](CCCNC(=N)N)C(N)=O) [Example 6] | 55% |  | 
18 | N-acetyl-L-Phg-D-Cha-L-Aze-D-Tyr-L-Har amide (Ac-[Phg][dCha][Aze][dY][hArg]-NH2) [Example 26] |  | 95% | 
19 | N-acetyl-D-Phe-D-Cha-L-Aze-D-Tyr-L-Har amide (Ac-[dF][dCha][Aze][dY][hArg]-NH2; SMILES CC(=O)N[C@H](Cc1ccccc1)C(=O)N[C@H](CC1CCCCC1)C(=O)N1CC[C@H]1C(=O)N[C@H](Cc1ccc(O)cc1)C(=O)N[C@@H](CCCCNC(=N)N)C(N)=O) [Example 20] |  | 77% | 
20 | N-acetyl-L-Dcp-D-Cha-L-Aze-D-Tyr-L-Har amide (Ac-[Dcp][dCha][Aze][dY][hArg]-NH2) [Example 21] |  | 75% | 
21 | N-acetyl-D-Val-D-His-L-Cha-D-Pro-D-Tyr-L-Arg amide (Ac-[dV][dH][Cha][dP][dY]R-NH2; SMILES CC(=O)N[C@@H](C(=O)N[C@H](Cc1c[nH]cn1)C(=O)N[C@@H](CC1CCCCC1)C(=O)N1CCC[C@@H]1C(=O)N[C@H](Cc1ccc(O)cc1)C(=O)N[C@@H](CCCNC(=N)N)C(N)=O)C(C)C) [Example 3] | 51% |  | 
22 | N-acetyl-L-Nle-D-Cha-L-Aze-D-Tyr-L-Har amide (Ac-[Nle][dCha][Aze][dY][hArg]-NH2; SMILES CCCC[C@H](NC(C)=O)C(=O)N[C@H](CC1CCCCC1)C(=O)N1CC[C@H]1C(=O)N[C@H](Cc1ccc(O)cc1)C(=O)N[C@@H](CCCCNC(=N)N)C(N)=O) [Example 27] |  | 89% | 
23 | N-acetyl-L-Iq3-D-Cha-L-Aze-D-Tyr-L-Har amide (Ac-[Tic][dCha][Aze][dY][hArg]-NH2) [Example 23] |  | 72% | 
24 | N-acetyl-L-Tyr-D-Pro-L-Cha-D-Pro-D-Tyr-L-Arg amide (Ac-Y[dP][Cha][dP][dY]R-NH2; SMILES CC(=O)N[C@@H](Cc1ccc(O)cc1)C(=O)N1CCC[C@@H]1C(=O)N[C@@H](CC1CCCCC1)C(=O)N1CCC[C@@H]1C(=O)N[C@H](Cc1ccc(O)cc1)C(=O)N[C@@H](CCCNC(=N)N)C(N)=O) [Example 15] | 44% |  | 
25 | N-acetyl-D-Val-L-Cha-D-Pro-D-Tyr-L-Arg amide (Ac-[dV][Cha][dP][dY]R-NH2; SMILES CC(=O)N[C@@H](C(=O)N[C@@H](CC1CCCCC1)C(=O)N1CCC[C@@H]1C(=O)N[C@H](Cc1ccc(O)cc1)C(=O)N[C@@H](CCCNC(=N)N)C(N)=O)C(C)C) [Example 8] | 45% |  | 
26 | N-acetyl-L-Ile-L-Arg-L-Cha-D-Pro-D-Tyr-L-Arg amide (Ac-IR[Cha][dP][dY]R-NH2; SMILES CC[C@H](C)[C@H](NC(C)=O)C(=O)N[C@@H](CCCNC(=N)N)C(=O)N[C@@H](CC1CCCCC1)C(=O)N1CCC[C@@H]1C(=O)N[C@H](Cc1ccc(O)cc1)C(=O)N[C@@H](CCCNC(=N)N)C(N)=O) [Example 5] | 61% |  | 
27 | N-acetyl-L-Ppd-D-Cha-L-Aze-D-Tyr-L-Har amide (Ac-[Ppd][dCha][Aze][dY][hArg]-NH2) [Example 24] |  | 76% | 
